From patent US20200199234A1 (published 2020)

How the values were obtained:
[1] = molecular target: T1, recombinant CD79b-His (Sinobiological #29750-H08H) (Homo sapiens (Human), UniProt P40259 29-159); experiment: SPR Biacore T200, CD79b-His captured by anti-penta-His
T1 construct: bought protein; also called soluble recombinant CD79b-His
T1 sequence: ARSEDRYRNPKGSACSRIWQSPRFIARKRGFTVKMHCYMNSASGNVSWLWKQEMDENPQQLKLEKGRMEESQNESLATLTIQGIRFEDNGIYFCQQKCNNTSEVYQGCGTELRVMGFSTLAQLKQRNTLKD

[2] = molecular target: T2, N(A2B2)A-avi-His (human, biotinylated avi-tag); experiment: SPR ProteOn, purified Fab
T2 construct: also called biotinylated N(A2B2)A-avi-His
T2 chain: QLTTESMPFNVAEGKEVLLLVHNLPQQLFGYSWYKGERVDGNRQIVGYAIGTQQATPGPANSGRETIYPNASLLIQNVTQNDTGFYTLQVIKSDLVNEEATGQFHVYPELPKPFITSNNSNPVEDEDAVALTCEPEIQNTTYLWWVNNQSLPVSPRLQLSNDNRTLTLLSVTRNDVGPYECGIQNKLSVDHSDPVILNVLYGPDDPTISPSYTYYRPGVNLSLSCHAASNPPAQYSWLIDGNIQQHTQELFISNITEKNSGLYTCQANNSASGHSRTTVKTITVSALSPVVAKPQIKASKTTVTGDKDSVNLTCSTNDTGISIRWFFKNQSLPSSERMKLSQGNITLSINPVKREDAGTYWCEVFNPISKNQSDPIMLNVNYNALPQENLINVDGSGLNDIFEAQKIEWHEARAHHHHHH

[3] = molecular target: T3, FcRn, biotinylated, coupled to streptavidin-sepharose (Homo sapiens (Human), UniProt P55899 24-297; P61769 21-119, The receptor is biotinylated and coupled to streptavidin-sepharose. The patent states neither the biotinylation site nor any tag.); experiment: FcRn affinity chromatography
T3 construct: also called FcRn-sepharose matrix; copies: 1 + 1

[4] = molecular target: T4, human CD28 expressed on cells (CHO-k1 stably overexpressing human CD28; T cells in functional assays) (human, UniProt P10747 19-220); experiment: cell-based or functional assay
[5] = molecular target: T5, human CD19 on Nalm6 B cells (human, UniProt P15391 20-556); experiment: flow cytometry on Nalm6 cells
T5 sequence: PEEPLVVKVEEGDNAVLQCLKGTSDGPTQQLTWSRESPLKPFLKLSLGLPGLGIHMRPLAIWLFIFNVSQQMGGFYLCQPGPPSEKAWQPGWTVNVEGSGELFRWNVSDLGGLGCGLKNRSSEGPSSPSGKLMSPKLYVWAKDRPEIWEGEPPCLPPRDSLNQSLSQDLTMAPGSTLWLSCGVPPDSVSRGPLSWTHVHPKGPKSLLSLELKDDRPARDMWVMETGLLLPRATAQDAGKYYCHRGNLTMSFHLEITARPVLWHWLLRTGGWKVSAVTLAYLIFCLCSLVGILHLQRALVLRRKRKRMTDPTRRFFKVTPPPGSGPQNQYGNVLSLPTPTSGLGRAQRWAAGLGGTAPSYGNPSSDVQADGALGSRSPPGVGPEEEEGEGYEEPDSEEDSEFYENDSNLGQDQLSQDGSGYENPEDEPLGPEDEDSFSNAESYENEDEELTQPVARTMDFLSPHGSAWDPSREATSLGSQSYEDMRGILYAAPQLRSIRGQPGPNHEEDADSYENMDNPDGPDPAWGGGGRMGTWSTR

[6] = molecular target: T4, human CD28 expressed on cells (CHO-k1 …); experiment: flow cytometry on CHOk1-CD28 cells

B1: Molecule 18F: CD79b (huMA79b.v28)-CD28 (SA v15) 1+1 (bispecific antibody, human IgG1, kappa, L234A L235A)
heavy 1: not shown
heavy 2: DIQLTQSPSSLSASVGDRVTITCKASQSVDYEGDSFLNWYQQKPGKAPKLLIYAASNLESGVPSRFSGSGSGTDFTLTISSLQPEDFATYYCQQSNEDPLTFGQGTKVEIKSSASTKGPSVFPLAPSSKSTSGGTAALGCLVKDYFPEPVTVSWNSGALTSGVHTFPAVLQSSGLYSLSSVVTVPSSSLGTQTYICNVNHKPSNTKVDKKVEPKSCDKTHTCPPCPAPEAAGGPSVFLFPPKPKDTLMISRTPEVTCVVVDVSHEDPEVKFNWYVDGVEVHNAKTKPREEQYNSTYRVVSVLTVLHQDWLNGKEYKCKVSNKALGAPIEKTISKAKGQPREPQVCTLPPSRDELTKNQVSLSCAVKGFYPSDIAVEWESNGQPENNYKTTPPVLDSDGSFFLVSKLTVDKSRWQQGNVFSCSVMHEALHNHYTQKSLSLSP
light 1: not shown
light 2: EVQLVESGGGLVQPGGSLRLSCAASGYTFSSYWIEWVRQAPGKGLEWIGEILPGGGDTNYNEIFKGRATFSADTSKNTAYLQMNSLRAEDTAVYYCTRRVPIRLDYWGQGTLVTVSSASVAAPSVFIFPPSDEQLKSGTASVVCLLNNFYPREAKVQWKVDNALQSGNSQESVTEQDSKDSTYSLSSTLTLSKADYEKHKVYACEVTHQGLSSPVTKSFNRGEC
notes: also called P1AE9039; CD79b-CD28
Kd [1]: 76 nM | koff [1]: 0.0195 s⁻¹ | kon [1]: 257000 M⁻¹ s⁻¹

B2: P001.177 Fab fragment (Fab, V domains shown)
VH: EVQLLESGGGLVQPGGSLRLSCAASGFYFTDYYMNWVRQAPGKGLEWLGFISNKANAYTTEYSASVKGRFTISRDKSKNTLYLQMNSLRAEDTATYYCTRDRGLRFYFDYWGQGTTVTVSS
VL: EIVLTQSPATLSLSPGERATLSCRASSSVTYIHWYQQKPGQAPRSWIYATSNLASGIPARFSGSGSGTDFTLTISSLEPEDFAVYYCQHWSSKPPTFGQGTKLEIK
koff [2]: 0.000785 s⁻¹

B3: Molecule 11D: CEA (A5H1EL1D)-CD28 (SA_Variant 29) 1+1 format (bispecific antibody, human IgG1, kappa, L234A L235A)
heavy 1: EIVLTQSPATLSLSPGERATLSCRASSSVTYIHWYQQKPGQAPRSWIYATSNLASGIPARFSGSGSGTDFTLTISSLEPEDFAVYYCQHWSSKPPTFGQGTKLEIKSSASTKGPSVFPLAPSSKSTSGGTAALGCLVKDYFPEPVTVSWNSGALTSGVHTFPAVLQSSGLYSLSSVVTVPSSSLGTQTYICNVNHKPSNTKVDKKVEPKSCDKTHTCPPCPAPEAAGGPSVFLFPPKPKDTLMISRTPEVTCVVVDVSHEDPEVKFNWYVDGVEVHNAKTKPREEQYNSTYRVVSVLTVLHQDWLNGKEYKCKVSNKALGAPIEKTISKAKGQPREPQVCTLPPSRDELTKNQVSLSCAVKGFYPSDIAVEWESNGQPENNYKTTPPVLDSDGSFFLVSKLTVDKSRWQQGNVFSCSVMHEALHNHYTQKSLSLSP
light 1: EVQLLESGGGLVQPGGSLRLSCAASGFTFTDYYMNWVRQAPGKGLEWLGFIGNKANAYTTEYSASVKGRFTISRDKSKNTLYLQMNSLRAEDTATYYCTRDRGLRFYFDYWGQGTTVTVSSASVAAPSVFIFPPSDEQLKSGTASVVCLLNNFYPREAKVQWKVDNALQSGNSQESVTEQDSKDSTYSLSSTLTLSKADYEKHKVYACEVTHQGLSSPVTKSFNRGEC
heavy 2: not shown
light 2: not shown
notes: also called P1AE4776; copies: 1 + 1 + 1 + 1
FcRn affinity (relative retention time) [3]: 0.17

B4: Molecule 11C: CEA (A5H1EL1D)-CD28 (SA_Variant 15) 1+1 format (bispecific antibody, human IgG1, kappa, L234A L235A)
heavy 1: B3 heavy 1
light 1: B3 light 1
heavy 2: not shown
light 2: not shown
notes: also called P1AE4775; copies: 1 + 1 + 1 + 1
FcRn affinity (relative retention time) [3]: 0.1

B5: Molecule 11A: CEA (A5H1EL1D)-CD28 (SA) 1+1 format (bispecific antibody, human IgG1, kappa, L234A L235A)
heavy 1: B3 heavy 1
light 1: B3 light 1
heavy 2: not shown
light 2: not shown
notes: also called P1AE4773; copies: 1 + 1 + 1 + 1
FcRn affinity (relative retention time) [3]: 0.21

B6: Molecule 11B: CEA (A5H1EL1D)-CD28 (SA_Variant 8) 1+1 format (bispecific antibody, human IgG1, kappa, L234A L235A)
heavy 1: B3 heavy 1
light 1: B3 light 1
heavy 2: not shown
light 2: not shown
notes: also called P1AE4774; copies: 1 + 1 + 1 + 1
FcRn affinity (relative retention time) [3]: 0.08

B7: FAP (4B9) - CD28 (CD28(SA)_Variant 11) 1+1 (bispecific antibody, human IgG1, kappa, L234A L235A)
heavy 1: EIVLTQSPGTLSLSPGERATLSCRASQSVTSSYLAWYQQKPGQAPRLLINVGSRRATGIPDRFSGSGSGTDFTLTISRLEPEDFAVYYCQQGIMLPPTFGQGTKVEIKSSASTKGPSVFPLAPSSKSTSGGTAALGCLVKDYFPEPVTVSWNSGALTSGVHTFPAVLQSSGLYSLSSVVTVPSSSLGTQTYICNVNHKPSNTKVDKKVEPKSCDKTHTCPPCPAPEAAGGPSVFLFPPKPKDTLMISRTPEVTCVVVDVSHEDPEVKFNWYVDGVEVHNAKTKPREEQYNSTYRVVSVLTVLHQDWLNGKEYKCKVSNKALGAPIEKTISKAKGQPREPQVCTLPPSRDELTKNQVSLSCAVKGFYPSDIAVEWESNGQPENNYKTTPPVLDSDGSFFLVSKLTVDKSRWQQGNVFSCSVMHEALHNHYTQKSLSLSP
light 1: EVQLLESGGGLVQPGGSLRLSCAASGFTFSSYAMSWVRQAPGKGLEWVSAIIGSGASTYYADSVKGRFTISRDNSKNTLYLQMNSLRAEDTAVYYCAKGWFGGFNYWGQGTLVTVSSASVAAPSVFIFPPSDEQLKSGTASVVCLLNNFYPREAKVQWKVDNALQSGNSQESVTEQDSKDSTYSLSSTLTLSKADYEKHKVYACEVTHQGLSSPVTKSFNRGEC
heavy 2: not shown
light 2: not shown
EC50 killing (nM), TCB-mediated killing of MV3 target cells [4]: 1.73 nM

B8: FAP (4B9) - CD28 (CD28(SA)_Variant 12) 1+1 (bispecific antibody, human IgG1, kappa, L234A L235A)
heavy 1: B7 heavy 1
light 1: B7 light 1
heavy 2: not shown
light 2: DIQMTQSPSSLSASVGDRVTITCRASQNIYVWLNWYQQKPGKAPKLLIYKASNLYSGVPSRFSGSRSGTDFTLTISSLQPEDFATYYCQQGQTYPYTFGQGTKLEIKRTVAAPSVFIFPPSDRKLKSGTASVVCLLNNFYPREAKVQWKVDNALQSGNSQESVTEQDSKDSTYSLSSTLTLSKADYEKHKVYACEVTHQGLSSPVTKSFNRGEC
EC50 killing (nM), TCB-mediated killing of MV3 target cells [4]: 0.98 nM

B9: FAP (4B9) - CD28 (CD28(SA)_Variant 29) 1+1 (bispecific antibody, human IgG1, kappa, L234A L235A)
heavy 1: B7 heavy 1
light 1: B7 light 1
heavy 2: not shown
light 2: not shown
EC50 killing (nM), TCB-mediated killing of MV3 target cells [4]: 1.11 nM

B10: FAP (4B9) - CD28 (CD28(SA)_Variant 15) 1+1 (bispecific antibody, human IgG1, kappa, L234A L235A)
heavy 1: B7 heavy 1
light 1: B7 light 1
heavy 2: not shown
light 2: not shown
EC50 killing (nM), TCB-mediated killing of MV3 target cells [4]: 1.79 nM

B11: Molecule 18C: CD19 (8B8-2B11)-CD28 (SA v8) 1+1 (bispecific antibody, human IgG1, kappa, L234A L235A)
heavy 1: not shown
heavy 2: DIVMTQTPLSLSVTPGQPASISCKSSQSLETSTGTTYLNWYLQKPGQSPQLLIYRVSKRFSGVPDRFSGSGSGTDFTLKISRVEAEDVGVYYCLQLLEDPYTFGQGTKLEIKSSASTKGPSVFPLAPSSKSTSGGTAALGCLVKDYFPEPVTVSWNSGALTSGVHTFPAVLQSSGLYSLSSVVTVPSSSLGTQTYICNVNHKPSNTKVDKKVEPKSCDKTHTCPPCPAPEAAGGPSVFLFPPKPKDTLMISRTPEVTCVVVDVSHEDPEVKFNWYVDGVEVHNAKTKPREEQYNSTYRVVSVLTVLHQDWLNGKEYKCKVSNKALGAPIEKTISKAKGQPREPQVCTLPPSRDELTKNQVSLSCAVKGFYPSDIAVEWESNGQPENNYKTTPPVLDSDGSFFLVSKLTVDKSRWQQGNVFSCSVMHEALHNHYTQKSLSLSP
light 1: not shown
light 2: QVQLVQSGAEVKKPGASVKVSCKASGYTFTDYIMHWVRQAPGQGLEWMGYINPYNDGSKYTEKFQGRVTMTSDTSISTAYMELSRLRSDDTAVYYCARGTYYYGPQLFDYWGQGTTVTVSSASVAAPSVFIFPPSDEQLKSGTASVVCLLNNFYPREAKVQWKVDNALQSGNSQESVTEQDSKDSTYSLSSTLTLSKADYEKHKVYACEVTHQGLSSPVTKSFNRGEC
notes: also called P1AF0175; CD19-CD28 v8
EC50 [5]: 0.232 nM | EC50 [6]: 232 nM

B12: Molecule 18D: CD19 (8B8-2B11)-CD28 (SA v11) 1+1 (bispecific antibody, human IgG1, kappa, L234A L235A)
heavy 1: not shown
heavy 2: B11 heavy 2
light 1: not shown
light 2: B11 light 2
notes: also called P1AF0377; CD19-CD28 v11
EC50 [5]: 0.363 nM | EC50 [6]: 150 nM

B13: Molecule 18A: CD19 (8B8-2B11)-CD28 (SA v29) 1+1 (bispecific antibody, human IgG1, kappa, L234A L235A)
heavy 1: not shown
heavy 2: B11 heavy 2
light 1: not shown
light 2: B11 light 2
notes: also called P1AE8002; CD19-CD28 v29
EC50 [5]: 0.274 nM | EC50 [6]: 6.65 nM

B14: Molecule 18E: CD19 (8B8-2B11)-CD28 (SA v27) 1+1 (bispecific antibody, human IgG1, kappa, L234A L235A)
heavy 1: not shown
heavy 2: B11 heavy 2
light 1: not shown
light 2: B11 light 2
notes: also called P1AF0378; CD19-CD28 v27
EC50 [5]: 0.368 nM | EC50 [6]: 10.8 nM

B15: Molecule 18B: CD19 (8B8-2B11)-CD28 (SA v15) 1+1 (bispecific antibody, human IgG1, kappa, L234A L235A)
heavy 1: not shown
heavy 2: B11 heavy 2
light 1: not shown
light 2: B11 light 2
notes: also called P1AE9040; CD19-CD28 v15
EC50 [5]: 0.416 nM | EC50 [6]: 15.6 nM
